Laboratory results from patent publication US20190119318A1.
“And” between values parts separate entries of the source, which are not always exact repeats. Identical values can stand only once.

Experiments:
[1] = biological target: human polyclonal IgG (Gammanorm) (human); test: column DBC; base A40; ligand 11.03 mg/ml
[2] = biological target: human polyclonal IgG (Gammanorm) (human); test: column DBC; base A65a; ligand 13.1 mg/ml
[3] = biological target: human polyclonal IgG (Gammanorm) (human); test: column DBC; base A62b; ligand […]; details: ligand content 5.2 mg/ml
[4] = biological target: human polyclonal IgG (Gammanorm) (human); test: column DBC; base C2; ligand 10.5 mg/ml
[5] = biological target: human polyclonal IgG (Gammanorm) (human); test: column DBC; base C4; ligand 10.1 mg/ml
[6] = biological target: human polyclonal IgG (Gammanorm) (human); test: column DBC; base A40; ligand 11.0 mg/ml
[7] = biological target: human polyclonal IgG (Gammanorm) (human); test: column DBC; base A32; ligand 13.3 mg/ml
[8] = biological target: human polyclonal IgG (Gammanorm) (human); test: column DBC; base A40; ligand 13.15 mg/ml
[9] = biological target: human polyclonal IgG (Gammanorm) (human); test: SPR; after 100 CIP cycles 1 M NaOH
[10] = biological target: human polyclonal IgG (Gammanorm) (human); test: column DBC; base A28; ligand 7.9 mg/ml
[11] = biological target: human polyclonal IgG (Gammanorm) (human); test: column DBC; base A39; ligand 7.0 mg/ml
[12] = biological target: human polyclonal IgG (Gammanorm) (human); test: column DBC; base A38; ligand 11.34 mg/ml
[13] = biological target: human polyclonal IgG (Gammanorm) (human); test: SPR; after 200 CIP cycles 0.5 M NaOH
[14] = biological target: human polyclonal IgG (Gammanorm) (human); test: column DBC; ligand 12 mg/ml; before incubation in 1 M NaOH
[15] = biological target: human polyclonal IgG (Gammanorm) (human); test: column DBC; base A40; ligand 6.1 mg/ml
[16] = biological target: human polyclonal IgG (Gammanorm) (human); test: column DBC; base A20; ligand 10.6 mg/ml
[17] = biological target: human polyclonal IgG (Gammanorm) (human); test: column DBC; base B5; ligand 9.6 mg/ml
[18] = biological target: human polyclonal IgG (Gammanorm) (human); test: column DBC; base B5; ligand 6.3 mg/ml
[19] = biological target: human polyclonal IgG (Gammanorm) (human); test: column DBC; base A65b; ligand […]
[20] = biological target: human polyclonal IgG (Gammanorm) (human); test: column DBC; base A65a; ligand 6.6 mg/ml
[21] = biological target: human polyclonal IgG (Gammanorm) (human); test: column DBC; base A28; ligand 11.9 mg/ml
[22] = biological target: human polyclonal IgG (Gammanorm) (human); test: column DBC; base A62a; ligand 6.6 mg/ml
[23] = biological target: human polyclonal IgG (Gammanorm) (human); test: column DBC; base A41; ligand 13.0 mg/ml
[24] = biological target: human polyclonal IgG (Gammanorm) (human); test: column DBC; base I1; ligand 11.2 mg/ml
[25] = biological target: human polyclonal IgG (Gammanorm) (human); test: column DBC; base A38; ligand 7.45 mg/ml
[26] = biological target: human polyclonal IgG (Gammanorm) (human); test: column DBC; base C3; ligand […]; details: ligand content 5.9 mg/ml
[27] = biological target: human polyclonal IgG (Gammanorm) (human); test: column DBC; base A39; ligand 10.5 mg/ml
[28] = biological target: human polyclonal IgG (Gammanorm) (human); test: column DBC; base A39; ligand 10.48 mg/ml
[29] = biological target: human polyclonal IgG (Gammanorm) (human); test: column DBC; base A62a; ligand 14.8 mg/ml
[30] = biological target: human polyclonal IgG (Gammanorm) (human); test: SPR; after 300 CIP cycles 0.5 M NaOH
[31] = biological target: human polyclonal IgG (Gammanorm) (human); test: column DBC; base A63a; ligand 6.6 mg/ml
[32] = biological target: human polyclonal IgG (Gammanorm) (human); test: column DBC; base A28; ligand 15.8 mg/ml
[33] = biological target: human polyclonal IgG (Gammanorm) (human); test: column DBC; base A33; ligand 7.33 mg/ml
[34] = biological target: human polyclonal IgG (Gammanorm) (human); test: column DBC; base A43; ligand 10.51 mg/ml
[35] = biological target: human polyclonal IgG (Gammanorm) (human); test: column DBC; base A65a; ligand 6.1 mg/ml
[36] = biological target: human polyclonal IgG (Gammanorm) (human); test: column DBC; base A65a; ligand 13.6 mg/ml

Zvar(Q9A,N11E,Q40V,A42K,N43A,L44I)4 (designed binder)
Qb10% 2.4 min [1]: 55 mg/mL
Qb10% 6 min [1]: 73.8 mg/mL
Qb10% 2.4 min [2]: 56 mg/mL
Qb10% 6 min [2]: 64 mg/mL
Qb10% 2.4 min [3]: 40 mg/mL
Qb10% 2.4 min [4]: 42 mg/mL
Qb10% 6 min [4]: 57 mg/mL
Qb10% 2.4 min [5]: 55 mg/mL
Qb10% 6 min [5]: 63 mg/mL
Qb10% 2.4 min [6]: 55 mg/mL
Qb10% 6 min [6]: 74 mg/mL
Qb10% 2.4 min [7]: 37 mg/mL
Qb10% 6 min [7]: 66 mg/mL
Qb10% 2.4 min [8]: 56.9 mg/mL
Qb10% 6 min [8]: 71.1 mg/mL
remaining capacity 100 cycles [9]: 56%
Qb10% 2.4 min [10]: 42.4 mg/mL and 42 mg/mL
Qb10% 6 min [10]: 58.2 mg/mL and 58 mg/mL
Qb10% 2.4 min [11]: 42 mg/mL
Qb10% 6 min [11]: 55 mg/mL
Qb10% 2.4 min [12]: 48.1 mg/mL
Qb10% 6 min [12]: 72.8 mg/mL
remaining capacity 200 cycles [13]: 74%
Qb10%, 6 min, before incubation [14]: 78 mg/mL
Qb10% 2.4 min [15]: 49 mg/mL
Qb10% 6 min [15]: 59 mg/mL
Qb10% 2.4 min [16]: 50.7 mg/mL and 51 mg/mL
Qb10% 6 min [16]: 70.1 mg/mL and 70 mg/mL
Qb10% 2.4 min [17]: 45 mg/mL
Qb10% 6 min [17]: 47 mg/mL
Qb10% 2.4 min [18]: 32 mg/mL
Qb10% 6 min [18]: 38 mg/mL
Qb10% 2.4 min [19]: 42 mg/mL
Qb10% 6 min [19]: 46 mg/mL
Qb10% 2.4 min [20]: 42 mg/mL
Qb10% 6 min [20]: 47 mg/mL
Qb10% 2.4 min [21]: 39.9 mg/mL and 40 mg/mL
Qb10% 6 min [21]: 63.8 mg/mL and 64 mg/mL
Qb10% 2.4 min [22]: 41 mg/mL
Qb10% 6 min [22]: 46 mg/mL
Qb10% 2.4 min [23]: 35 mg/mL
Qb10% 6 min [23]: 62.2 mg/mL
Qb10% 2.4 min [24]: 57 mg/mL
Qb10% 6 min [24]: 68 mg/mL
Qb10% 2.4 min [25]: 44.4 mg/mL
Qb10% 6 min [25]: 58.2 mg/mL
Qb10% 2.4 min [26]: 44 mg/mL
Qb10% 6 min [26]: 52 mg/mL
Qb10% 2.4 min [27]: 44 mg/mL
Qb10% 6 min [27]: 65 mg/mL
Qb10% 2.4 min [28]: 44.4 mg/mL
Qb10% 6 min [28]: 64.8 mg/mL
Qb10% 2.4 min [29]: 55 mg/mL
Qb10% 6 min [29]: 62 mg/mL
remaining capacity 300 cycles [30]: 57%
Qb10% 2.4 min [31]: 40 mg/mL
Qb10% 6 min [31]: 44 mg/mL
Qb10% 2.4 min [32]: 37 mg/mL
Qb10% 6 min [32]: 67 mg/mL
Qb10% 2.4 min [33]: 48.7 mg/mL
Qb10% 6 min [33]: 55.8 mg/mL
Qb10% 2.4 min [34]: 31.8 mg/mL
Qb10% 6 min [34]: 58 mg/mL
Qb10% 2.4 min [35]: 40 mg/mL
Qb10% 6 min [35]: 44 mg/mL
Qb10% 2.4 min [36]: 52 mg/mL
Qb10% 6 min [36]: 61 mg/mL
